From publication PMC3901395, “Multivalent interactions of the SUMO-interaction motifs in RING finger protein 4 determine the specificity for chains of the SUMO” (Biochemical Journal, 2013)

Tests used:
[1] = system: mono-SUMOs and SUMO chains; assay: ITC binding to mono-SUMOs and SUMO chains (general statements); details: mono-SUMO1 and mono-SUMO2
Excerpt: (§1) For expression in Escherichia coli, linear poly-SUMO chains were generated as described previously with slight modifications. After the combined PCR/ligation reaction, the 4×SUMO2-ΔN11 or 4×SUMO1-ΔN15 DNA polymers were separated from smaller polymers by agarose gel electrophoresis and individually extracted (Macherey–Nagel). These were then subjected to a second PCR with primers to create BamHI and XhoI restriction sites, a C-terminal GG motif and a stop codon. The resulting fragments coding for di-, tri- and tetra-SUMO2-ΔN11 or SUMO1-ΔN15 chains were amplified and cloned into pGEX-4T2. […] Each monomer in these chains is separated by RS replacing the natural GG motif. A similar strategy was used to design C-terminally GFP–HA2-tagged linear poly-SUMOs in the copper-inducible Ycplac22 vector for expression in S. cerevisiae. […]
(§2) The mono-SUMOs and linear poly-SUMO1 and poly-SUMO2 proteins as well as all RNF4 constructs were expressed as GST-fusion proteins from E. coli Rosetta™ 2(DE3)pLysS cells (Novagen) cultivated in LB medium with 100 μg/ml ampicillin and 30 μg/ml chloramphenicol after induction with 0.1 mM IPTG at 20°C for 12 h. […]
(§3) Binding of peptides and proteins to SUMOs was investigated by ITC using either a VP-ITC or an ITC200 (GE Healthcare). […] Protein concentrations were determined by measuring the absorption at 280 nm. […]

[2] = biological target: 4xSUMO1ΔN15 (tetra-SUMO1); assay: ITC binding to linear tetra-SUMO1 (4xSUMO1ΔN15); details: 50 mM Tris/HCl pH 7.5, 150 mM NaCl, 2 mM DTT, 5% glycerol, 25°C, averaged from two to six titrations, read-out: Dissociation constant (KD), 4xSUMO1ΔN15 (tetra-SUMO1)
Excerpt: as §1, §2, §3

2xSUMO1ΔN15 (di-SUMO1) = assay: ITC binding to linear di-SUMO1 (2xSUMO1ΔN15); details: 50 mM Tris/HCl pH 7.5, 150 mM NaCl, 2 mM DTT, 5% glycerol, 25°C, averaged from two to six titrations, read-out: Dissociation constant (KD), 2xSUMO1ΔN15 (linear di-SUMO1)
Excerpt: as §1, §2, §3

[3] = biological target: native 2xSUMO2 ('native' Lys^11-linked di-SUMO2 chains); assay: ITC binding to native Lys^11-linked di-SUMO2; details: 50 mM Tris/HCl pH 7.5, 150 mM NaCl, 2 mM DTT, 5% glycerol, 25°C, averaged from two to six titrations, chains produced by in vitro SUMOylation, read-out: Dissociation constant (KD), native Lys^11-linked di-SUMO2
Experimental: The mono-SUMOs and linear poly-SUMO1 and poly-SUMO2 proteins as well as all RNF4 constructs were expressed as GST-fusion proteins from E. coli Rosetta™ 2(DE3)pLysS cells (Novagen) cultivated in LB medium with 100 μg/ml ampicillin and 30 μg/ml chloramphenicol after induction with 0.1 mM IPTG at 20°C for 12 h. Cells were lysed by sonication in GST-buffer I (50 mM Tris/HCl, pH 7.5, 150 mM NaCl and 2 mM DTT) in the presence of protease inhibitors (1 μg/ml aprotinin, 1 μg/ml leupeptin, 1 μg/ml pepstatin, 200 μM pefabloc and 100 μM PMSF). For tetra-SUMOs and RNF4 variants, 1.5% sarkosyl, 0.1% Triton X-100 and 5% glycerol were added. The proteins were affinity purified using glutathione beads (Protino® Glutathione Agarose 4B, Macherey–Nagel) and eluted by thrombin cleavage. The supernatant was subjected to anion exchange chromatography and further purified by SEC (size-exclusion chromatography) into ITC buffer (50 mM Tris/HCl, pH 7.5, 150 mM NaCl, 2 mM DTT and 5% glycerol) or in crystallization buffer (20 mM Tris/HCl, pH 7.5, and 100 mM NaCl). Native SUMO2 chains were produced by in vitro SUMOylation as described recently and subsequently purified by affinity chromatography and SEC.
as §3

3xSUMO2ΔN11 (tri-SUMO2) = assay: ITC binding to linear tri-SUMO2 (3xSUMO2ΔN11)
Excerpt: as §1, §2, §3

2xSUMO2ΔN11 (di-SUMO2) = biological target: T1, 2xSUMO2ΔN11 (di-SUMO2) (Homo sapiens, UniProt P61956); assay: ITC binding to linear di-SUMO2 (2xSUMO2ΔN11); details: 50 mM Tris/HCl pH 7.5, 150 mM NaCl, 2 mM DTT, 5% glycerol, 25°C, averaged from two to six titrations, read-out: Dissociation constant (KD), 2xSUMO2ΔN11 (linear di-SUMO2)
T1 construct: Each monomer in these chains is separated by RS replacing the natural GG motif; a C-terminal GG motif and a stop codon; GST (N, cleaved yes); made in house; host or cells: E. coli Rosetta 2(DE3)pLysS
T1 sequence (P61956 with tags, fused parts or gaps): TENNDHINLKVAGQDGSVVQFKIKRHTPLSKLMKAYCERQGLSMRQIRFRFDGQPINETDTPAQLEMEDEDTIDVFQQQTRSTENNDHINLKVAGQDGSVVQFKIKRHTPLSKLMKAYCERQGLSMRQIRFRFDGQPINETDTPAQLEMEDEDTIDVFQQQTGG
Excerpt: as §1, §2, §3

[4] = biological target: 4xSUMO2ΔN11 (tetra-SUMO2); assay: ITC binding to linear tetra-SUMO2 (4xSUMO2ΔN11); details: 50 mM Tris/HCl pH 7.5, 150 mM NaCl, 2 mM DTT, 5% glycerol, 25°C, averaged from two to six titrations, read-out: Dissociation constant (KD), 4xSUMO2ΔN11 (tetra-SUMO2)
Excerpt: as §1, §2, §3

affinity for mono-SUMOs [1]: very weak
Kd [2]: 4.3 µM
Kd (2xSUMO1ΔN15 (di-SUMO1)): 17 µM
Kd [3]: 11 µM
Kd (3xSUMO2ΔN11 (tri-SUMO2); 50 mM Tris/HCl pH 7.5, 150 mM NaCl, 2 mM DTT, 5% glycerol, 25°C, averaged from two to six titrations, read-out: Dissociation constant (KD), 3xSUMO2ΔN11 (tri-SUMO2)): 19 µM
Kd (2xSUMO2ΔN11 (di-SUMO2)): 14 µM
Kd [4]: 1600 nM
B1: SIM domain: construct comprising the entire N-terminal part of RNF4 upstream of the RING domain (N-terminal 1–125 amino acids) (protein)
chain: MSTRKRRGGAINSRQAQKRTREATSTPEISLEAEPIELVETAGDEIVDLTCESLEPVVVDLTHNDSVVIVDERRRPRRNARRLPQDHADSCVVSSDDEELSRDRDVYVTTHTPRNARDEGATGLR
modifications: left off: GST, end not stated, cleaved
affinity for tri-SUMO compared with di-SUMO (3xSUMO2ΔN11 (tri-SUMO2); tri-SUMO2): did not result in an increase in affinity
